{"source": "paper PMC12287357", "about": "(2025)", "binders": {"B1": {"name": "recombinant His6-STAT3^127-715 (domain or fragment)", "chain": "GQANHPTAAVVTEKQQMLEQHLQDVRKRVQDLEQKMKVVENLQDDFDFNYKTLKSQGDMQDLNGNNQSVTRQKMQQLEQMLTALDQMRRSIVSELAGLLSAMEYVQKTLTDEELADWKRRQQIACIGGPPNICLDRLENWITSLAESQLQTRQQIKKLEELQQKVSYKGDPIVQHRPMLEERIVELFRNLMKSAFVVERQPCMPMHPDRPLVIKTGVQFTTKVRLLVKFPELNYQLKIKVCIDKDSGDVAALRGSRKFNILGTNTKVMNMEESNNGSLSAEFKHLTLREQRCGNGGRANCDASLIVTEELHLITFETEVYHQGLKIDLETHSLPVVVISNICQMPNAWASILWYNMLTNNPKNVNFFTKPPIGTWDQVAEVLSWQFSSTTKRGLSIEQLTTLAEKLLGPGVNYSGCQITWAKFCKENMAGKGFSFWVWLDNIIDLVKKYILALWNEGYIMGFISKERERAILSTKPPGTFLLRFSESSKEGGVTFTWVEKDISGKTQIQSVEPYTKQQLNNMSFAEIIMGYKIMDATNILVSPLVYLYPDIPKEEAFGKYCRPESQEHPEADPGSAAPYLKTKFICVTP"}}, "molecular_target": "SteE_pS141pY143", "assay": "BLI"}
{"binder": "B1", "values": [{"measurement": "Kd", "value": 1400, "unit": "nM"}]}
